Here are results for 3 molecules from patent publication US20210317230A1 (HANGZHOU SUMGEN BIOTECH, published 2021).

By EC50 is commonly meant the concentration at which the effect is half-maximal. A higher EC50 goes with lower potency in that assay. The IC50 is the concentration at which inhibition is half-maximal. Low values mean greater potency, high ones weaker potency.

Assay [1] addresses T1, CD38 on Raji cells (CD38 positive cells) (UniProt P28907 1-300, limits assumed).
T1 sequence (looked up): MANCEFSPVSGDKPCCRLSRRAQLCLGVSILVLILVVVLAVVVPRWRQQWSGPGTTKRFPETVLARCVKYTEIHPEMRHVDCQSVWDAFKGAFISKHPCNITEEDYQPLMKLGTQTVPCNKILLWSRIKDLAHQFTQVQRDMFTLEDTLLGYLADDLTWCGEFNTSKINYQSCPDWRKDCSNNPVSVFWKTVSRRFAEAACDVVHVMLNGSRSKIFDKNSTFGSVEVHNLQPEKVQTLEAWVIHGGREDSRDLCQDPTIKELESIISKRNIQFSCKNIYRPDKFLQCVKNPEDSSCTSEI
Nature of the assay: cell-based or functional assay.

The target in assay [2] is T2, CD38-His (UniProt P28907 43-300).
T2 construct: also called target antigen CD38; not shown: His tag
T2 sequence (looked up): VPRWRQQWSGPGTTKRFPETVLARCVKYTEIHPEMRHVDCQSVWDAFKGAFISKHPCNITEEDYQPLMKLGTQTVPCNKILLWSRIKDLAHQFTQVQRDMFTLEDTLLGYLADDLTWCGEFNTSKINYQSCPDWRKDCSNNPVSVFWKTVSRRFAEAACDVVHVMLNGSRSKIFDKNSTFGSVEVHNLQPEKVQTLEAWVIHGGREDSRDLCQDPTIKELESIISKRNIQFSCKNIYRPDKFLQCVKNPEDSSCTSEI
Nature of the assay: ELISA, CD38-His coated at 1 µg/ml, anti-human IgG HRP detection. Here is the method:
(1) With SG003 as the control, the binding activity between the fusion protein and CD38 was evaluated by ELISA.
Target antigen CD38-His (1 μg/ml) was coated on ELISA bars, overnight at 4° C.; after washing with PBST, 10% of fetal calf serum was added and blocked at 37° C. for 1 hour; different concentrations of SG003 antibody, SG3847L1 or SG3847L2 fusion protein were added and reacted at 37° C. for 1 hour; after washing with PBST, horseradish peroxidase-labeled goat anti-human IgG secondary antibodies (Goat Anti human IgG HRP, Thermo Fisher Scientific) were added and reacted at 37° C. for 30 minutes, and washed with PBST for 5 times; each well was added with 100 μl TMB (eBioscience), placed in dark at room temperature (20±5° C.) for 1-2 min; then each well was added with 100 μl 2N H₂SO₄ stop solution to terminate the reaction of the substrate, OD values were read at 450 nm on the microplate reader, and the capacity of the fusion protein to bind the target antigen CD38 was analyzed.

The next assay has as its target T3, CD47-His (UniProt Q08722 19-141, limits assumed).
T3 construct: also called target antigen CD47; not shown: His tag
In words: ELISA, CD47-His coated at 1 µg/ml, anti-human IgG HRP detection. Here is the method: Target antigen CD47-His (1 μg/ml) was coated on ELISA bars, overnight at 4° C.; after washing with PBST, 10% of fetal calf serum was added and blocked at 37° C. for 1 hour; different concentrations of SS002M91, SG3847L1 or SG3847L2 was added and reacted at 37° C. for 1 hour; after washing with PBST, horseradish peroxidase-labeled goat anti-human IgG secondary antibodies (Goat Anti human IgG HRP, Thermo Fisher Scientific) were added and reacted at 37° C. for 30 minutes, and washed with PBST for 5 times; each well was added with […] (eBioscience), placed in dark at room temperature (20±5° C.) for 1-2 min; then each well was added with 100 μl 2N H₂SO₄ stop solution to terminate the reaction of the substrate, OD values were read at 450 nm on the microplate reader, and the capacity of the fusion protein to bind the target antigen CD47 was analyzed.

Assay [3] deals with T4, biotin-labeled CD47 (Biotin-Fc-CD47) (UniProt Q08722 19-141, limits assumed, biotin-labeled).
T4 construct: not shown: Fc part
Nature of the assay: competition ELISA: SIRPα-His coated at 1 µg/ml, Biotin-Fc-CD47 at 2 µg/ml; competitor SIRPα-His. The procedure: SIRPα-His was coated on the assay plate at 1 μg/ml overnight at 4° C.; after washing with PBST, 10% of fetal calf serum was added and blocked at 37° C. for 1 hour; SS002M91, SG3847L1 or SG3847L2 was gradiently diluted respectively with 10% of fetal bovine blood, and Biotin-Fc-CD47 was added into the samples until a final concentration of 2 μg/ml, pre-incubated at 37° C. for 30 min, as the primary antibody; after the assay plate was washed with PBST, the primary antibody was added and incubated at 37° C. for 1 hour; after washing with PBST for 5 times, horseradish peroxidase-labeled avidin (Streptavidin-HRP, Jiaxuan Bio.) was added and incubated at 37° C. for 30 minutes; after washing with PBST for 5 times, each well was added with 100 μl TMB (eBioscience), placed in dark at room temperature (20±5° C.) for 1-5 min; then each well was added with 100 μl 2N H₂SO₄ stop solution to terminate the reaction of the substrate, OD values were read at 450 nm on the microplate reader, and the blocking effects of SS002M91, SG3847L1, SG3847L2 on CD47/SIRPα were analyzed.
(In general: ELISA stands for enzyme-linked immunosorbent assay.)

The target in assay [4] is T2, CD38-His. In words: bridging ELISA: CD38-His coated, fusion protein titrated, detected with Biotin-Fc-CD47 and streptavidin-HRP (simultaneous binding of CD38 and CD47). Here is the method:
(1) Referring to the principle of FIG. 5, with the anti-CD38 humanized antibody SG003 as the control, the biological activities of the fusion proteins SG3847L1 and SG3847L2 to simultaneously bind two antigens CD38 and CD47 were analyzed by ELISA.
Target antigen CD38-His (1 μg/ml) was coated on ELISA bars, overnight at 4° C.; after washing with PBST, 10% of fetal calf serum was added and blocked at 37° C. for 1 hour; different concentrations of SG003 antibody, SG3847L1 or SG3847L2 fusion protein were added and reacted at 37° C. for 1 hour; after washing with PBST, biotin-labeled CD47 (Biotin-Fc-CD47) was added and reacted at 37° C. for 30 minutes, and washed with PBST for 5 times; horseradish peroxidase-labeled avidin (Streptavidin-HRP, Jiaxuan Bio.) was added and reacted at 37° C. for 30 minutes, and washed with PBST for 5 times; each well was added with 100 μl TMB (eBioscience), placed in dark at room temperature (20±5° C.) for 1-2 min; then each well was added with 100 μl 2N H₂SO₄ stop solution to terminate the reaction of the substrate, OD values were read at 450 nm on the microplate reader, and the capacities of the fusion proteins to simultaneously bind the target antigens CD38 and CD 47 were analyzed.

T3 sequence (Q08722 19-141 limits assumed): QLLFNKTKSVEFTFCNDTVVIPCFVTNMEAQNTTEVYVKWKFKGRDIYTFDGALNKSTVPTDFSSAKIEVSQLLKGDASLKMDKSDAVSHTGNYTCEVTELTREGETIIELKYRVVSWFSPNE
T4 sequence (Q08722 19-141 limits assumed): as above

B1: fusion protein SG3847L1 (bispecific antibody, human IgG1, kappa)
heavy: not shown
light: EIVMTQSPASLSASLGQRATISCRASSSVSSSAFSYVHWYQQKSGQPPKLLIYLASNLESGVPARFSGSGSGTDFTLTIHPVESEDVATYYCHHSRELPFTFGSGTKLEIKRTVAAPSVFIFPPSDEQLKSGTASVVCLLNNFYPREAKVQWKVDNALQSGNSQESVTEQDSKDSTYSLSSTLTLSKADYEKHKVYACEVTHQGLSSPVTKSFNRGEC
notes: First polypeptide chain = SG003 light chain
In the case of B1, in assay [1], the “ADCC EC50 (specific kill rate, LDH release; Raji target cells, NK92MI-CD16a effector cells)” value (“ADCC EC50” below) was determined as 14 pM. For the same molecule, the values for the EC50 with CD38-His [2], in the assay with CD47-His and with CD38-His [4] were 175 pM, 114 pM and 20 pM, respectively. For the same molecule, the half-maximal inhibitory concentration (IC50) in assay [3] is 46800 pM.

B2: fusion protein SG3847L2 (bispecific antibody, human IgG1, kappa)
heavy: not shown
light: B1 light
notes: as for B1
As to B2, the “ADCC EC50” value in assay [1] is 13 pM. Moreover, the EC50 amounted to 149 pM with CD38-His [2], 91 pM in the assay with CD47-His and 24 pM in the assay with CD38-His [4]. This molecule showed an IC50 in assay [3] of 78800 pM.

B3: anti-CD38 humanized antibody SG003 (antibody, human IgG1, kappa, V domains shown)
VH: QVQLLESGGGLVQPGGSLKLSCVASGFDFSLYWMNWVRQAPGKGLEWIGKINPDSSTINYTPSLKDKFFISRDNAKNTLYLQMTKVRSEDTALYYCARLWIATGGFDYWGQGTTLTVSS
VL: EIVMTQSPASLSASLGQRATISCRASSSVSSSAFSYVHWYQQKSGQPPKLLIYLASNLESGVPARFSGSGSGTDFTLTIHPVESEDVATYYCHHSRELPFTFGSGTKLEIKR
notes: also called SG003 antibody
Turning to B3, in assay [1], the “ADCC EC50” value stood at 67 pM. Also, the EC50 in the assay with CD38-His [2] came to 133 pM.
